Values quoted from earlier work in PMC4351059.

Molecular target: Cys215 (UniProt position 215, PVVVHCSAGIG)
Conditions: not stated (reduced free enzyme implied)

Substance: Protein-tyrosine phosphatase 1B (PTP1B) (Homo sapiens (as described in this article; the cited source title says 'mammalian protein-tyrosine-phosphatase PTP1'))
- pKa: 5.6
